Test results: the nanobody polyreactivity screen of Harvey et al. (2022)

Assay: yeast display, Sf9 membrane polyspecificity reagent, FACS + sequencing; frameworks hold sequencing errors
Summary of the method: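 In a synthetic yeast display library (Saccharomyces cerevisiae BJ5465), nanobody expression was induced with galactose for 36–48 hours. FACS gates were set low and high (top ~1%) using anti-HA fluorescence for expression and streptavidin fluorescence for binding of the Sf9 membrane reagent. Each polyreactivity label is drawn from the gate of origin.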

Sequence	polyreactivity (PSR sort gate)
QVQLVESGRGLVQAGGSLRLSCAASGRIFRYYTMGWYRQAPGKERELVATISWNGSNTYYADSVKGRFTISRDNAKNTVYLQMNSLKPEDTAVYYCAAGVLPGLYNGARLFDYWGQGTQVTVSS	low polyreactivity
QVQLVESGRGLVQAGGSLRLSCAASGRIFTKNTMGWYRQAPGKERELVAAIRSRAGSTYYADSVKGRFTISRDNAKNTVYLQMNSLKPEDTAVYYCAVPWFRSVDFDYWGQGTQVTVSS	low polyreactivity
QVQLVESGRGLVQAGGSLRLSCAASGRIFYRYVMGWYRQAPGKERELVAAITSSGGSTYYADSVKGRFTISRDNAKNTVYFQMNSLKPEDTAVYYCSADRYTRYRYNYWGQGTQVTVSS	high polyreactivity
QVQLVESGRGLVQAGGSLRLSCAASGRIFYVYAMGWSRTAPGKERELVAAITQSGGRTYYADSVKGRFTISRDNAKNTVYLQMNSLKPEDTAVYYCAATWLGSRNLVHITLYYWGQGTQVTVSS	low polyreactivity
QVQLVESGRGLVQAGGSLRLSCAASGRIFYYAMGWYRQAPGKERELVAAITRSGGRTYYADSVKGRFTISRDNEKNTVYLQMNSLKPEDTAVYDCAADYGAQLWGYYPTFDYWGQGTQVTVSS	high polyreactivity
QVQLVESGRGLVQAGGSLRLSCAASGRIIGYYTMGWYRQAPGKERELVAAITRDGGSTYYADSVKGRFTISRDNAKNTVYLQMNSLKPEDTAVYYCTAASQSRYFYWGQGTQVTVSS	high polyreactivity
QVQLVESGRGLVQAGGSLRLSCAASGRTFGYYAMGWYIQAPGKERELVAAISYSGGSTYYADSVKGRFKISRDNAKNTVYLQMNSLKPEDTAVYYCAAYLRRYPWYDYWVQGTQVTVSS	high polyreactivity
QVQLVESGRGLVQAGGSLRLSCAASGRTFHYNVMGWYRQAPGKERELVAAITNTGGSTYYADSVKGRFTISRDNAKNTVYLQMNSLKPEDTAVYYCAAVIWGRRYGAYPYEYWGQGTQVTVSS	low polyreactivity
QVQLVESGRGLVQAGGSLRLSCAASGRTFRFNAMGWYRQAPGKEREFVAAITSGGGTYYADSVKGRFTISRDNAKNTVYLQMNSLKPEDTAVYYCAAPRQYYLMDYGGQGTQVTVSS	low polyreactivity
QVQLVESGRGLVQAGGSLRLSCAASGRTFYFYAMGWYRQAPGKEREFVAAITSSGVSTYYADSVKGRFTISRDNAKNTVYFQMISQKPEDSAVYYCAADDWDWENDYWGQGTQVTVSS	low polyreactivity
QVQLVESGRGLVQAGGSLRLSCAASGSIFGAYVMGWYRQAPGKERELVAAITRRGGSTYYADSVKGRFTISRDNAKNTVYLQMNSLKPEDTAVYYCAARRGAGDGYWGQGTQVNVSS	high polyreactivity
QVQLVESGRGLVQAGGSLRLSCAASGSIFGGYGMGWYRQAPGKERELVAAITSGSSTYYADSVKGRFTISRDNAKNTVYLQMNSLKPEDTAVYYCAARPYPHSAYEGDYWGRGTQVTVSS	low polyreactivity
QVQLVESGRGLVQAGGSLRLSCAASGSIFVDYTMGWYRQAPGKERELVARITSGGSTYYADSVKGRFTISRDNAKNSVYLQMNSLKPEDTAVYYCAARPYYRYRNSWREQYYYWGQGTQVTVSS	high polyreactivity
QVQLVESGRGLVQAGGSLRLSCAASGSIFWENAMGWYRQAPGKERELVADITIGGSTNYADSVKGRFTISRDNAKNTVYLQMNILKPEDTAVYYCAAYYYWPKYWYWGYDDWGQGTQVTVSS	low polyreactivity
QVQLVESGRGLVQAGGSLRLSCAASGSIFWYYAMGWYRPSPGKETELVAAIRRGGSTTYADSVKGRFTISRDNAKNTVYLQMNSLKPEDTAVYYCAAEPYYWYRGDYWGQGTQVTVSS	high polyreactivity
QVQLVESGRGLVQAGGSLRLSCAASGSTFAWNAMGWYRQAPGKERELVAAINSGDSTYYADSVKGLFTISRDNAKNTVYLQMNSLKPEDTAVYYCATKYRGVWYTRGQTYYYWGQGTQVNVSS	high polyreactivity

Sequence	polyreactivity (PSR sort gate)
QVQLVESGRGLVQAGGSLRLSCAASGSTFPGNAMGWYRQAPGKERELVAAIRDRGTSTYYADSVKGRFTISRDNAKNTVYLQMNSLKPEDTAVYYCAAASSVAKGRWRLYDYWGQGTQVTVSS	high polyreactivity
QVQLVESGRGLVQAGGSLRLSCAASVNIFRGYTMGRYRQAPGTERELVATITWNGVSTFYADSVKGRFTISRDNAKNTVYLQMHSLKPEDTAVYYCAAYYPSHDYSGFWSDTYEYWGQGTQVTVSS	low polyreactivity
QVQLVESGRGLVQAGGSLRLSCAPSGFTFYRNEMGWYRQAPGKERELVAAITFSGGITYYADSVKGRFTISRDNAKNTVYLQMNSLKPEDTAVYYGAAEGVGPARVYQGGEYNYWGQGTQVTVSS	low polyreactivity
QVQLVESGRGLVQAGGSLRLSCAPSGSNFPPNAMGWYRQAPGKEREFVASITSSGGITNYADSVKGRFTISRDNAKNTVYLQMNSLKPEDTAVYFCAAVQTWRWVYARDYWGQGTQVTVSS	high polyreactivity
QVQLVESGRGLVQAGGSLRVSCAASGNTYLYYGMGWYRHAPGKERELVAAITQSGGTTYYADSVKGRFTISRDNAKNTVYFQMNTLIPEDTAVYYFAATRYYYYWYVYDDRGDYWGQGTQVSVSS	low polyreactivity
QVQLVESGRGLVQAGGSLSLSCAASGITFRPYPMGWYRKAPGKERELVAAISRGGSSTYYADSVKGRFTISRDYAKNTVYLQMISLKPEDTAVYYFAARNNKKYDYWGQGTQVTVSS	high polyreactivity
QVQLVESGRGLVQAGRSLRLSCAASGFIFETYPMGWYRQAPGKVRELVAAISRGASTYYADSVKGRFTISRDNAKNTVYLQMNSLTPEDTAVYNCAAQQGISYGTGVSATNPMDYWGQGTHVTVSS	low polyreactivity
QVQLVESGRGLVQAGVSLRLSCAASGFIFKGYAMGWYRQATGKERELVAAITWSGRTYYADSVKGRFTISRDNAKNTVYLKMNSLKPEDTAVFYCAVDRGRGSTYKYDYWGQGTQVNVSS	low polyreactivity
QVQLVESGRGLVQAGVSLRLSCAASGRIFTNNAMGLYRQAPGKERELVAAINVSGGRTYYADSVKGRFTISRENAKNTVYLQMNSLKPEDTAVYYCNKVKETYMDYWGQGTQVTVSS	high polyreactivity
QVQLVESGRGLVQAGVSLRLSCAASGRTFVLYTMGWYRQAPGKERELVAAITKSGGSTYYADSVKGRFTISRDNAKNTVYLQMNSLKPEDTAVYYCAAARRYYTYYREDYYYWGQGTLVTVSS	high polyreactivity
QVQLVESGRGLVQAVGSLRLSSAASGSIFMWYTMGCYRQAPGKERELVAAISKSGGRTYYADSVKGRFTISRDNAKNTVYLQMNSMKPEDTAVYYCAKLYPYDSPVPDGHQFDYWGQGTQVTVSS	high polyreactivity
QVQLVESGRGLVQEGGSLRLSCAASGFTFYGYAMGWYRQAPGKERELVAAINSGGRTYYADSVKGRFTISRDNAKNSVYLQMNSLKPEDTAVYYCAAVSLYTSDYYWGQGTQVTVSS	high polyreactivity
QVQLVESGRRLVQAGGSLRLSCAASGSTFYGYGMGWYRPAPRQERELVAAITGSGDTTYYADSVKGRFTISRDNAKNTVYLQMNSLKPEDTAVYYCNARWHAEYDYWGQGTQVTVSS	low polyreactivity
QVQLVESGRRLVQAGGSLRLSCAASGSTFYGYGMGWYRQAPGKERELVAAITGSGDTTYYADSVKGRFTISRDNAKNTVYLQLNSLKPEDTAVDYCNARWHAEYDYWGQGTQVTVSS	low polyreactivity
QVQLVESGRRLVQAGGSLRLTCAASGSTFTRYAMGWYRQAPGKERELVASISGSGGRTYYADSVKGRFTISRDNAMNTVYLQMNSLKPEDTAVYYCAAKITRRYYPGYLFDYWGQGNQVTVSS	high polyreactivity
